Test results: the DeepSol protein solubility set

test: soluble on expression in E. coli; label from the status in PepcDB or PDB records

**Q.** Which “soluble on expression in E. coli” value does the source give for “MGSDKIHHHHHHMSIIDSQESTLYQQLAETFATAIHQGTLAPGSRLPSIRRVAGSHQVSVNTVLNAWRILEDRGLIEARPQSGYFVRGRLPSLTESKPHRAQVIVPGSEKLDLIDTVFAAQTHPDYTNISLACPQHTDFYPTEKISRIAASLLRRQPELIGRYALPPGSERLRREVARRAMDLGMTLTREDITITHGCMEALQLALRTVTQPGDCVGLETPTYFYLFPLLASLGLKTVEIPTDPQRGLSLDALELLLSENRLQAIIAMPNAQNPLGCSMTLADKKRLAKLVNDYQVPLIEDGLYSELQFTWPLSPTVKAFDREGWVIYCSSFTKTLAPDFRIGWMASGRFRAQVARLKAVSSMAESALLSETLAQFLESGGYDHHLRTLRRRYAAQMDEARGLIARHFPQGTRATQPQGGFVFWLELPGGVDGVELFHRLLQEKICVTPGELYTLSGRCKHALRLSCCYPFDERYTYALKRAGALACEMSGIGPGNEG” here?
**A.** not soluble

**Q.** With “MGSDKIHHHHHHMVKWYKTYLEVYGKSFDEISDDSIRKVKRQLKERQNDSPLVSVVLIAHNEERHLISCIWSLSENHCHFPIEIIAVNNNSTDKTEEILKSLGVTYYNETKKGPGYARQCGLDHAKGKYHICIDADTLYPPHYIETHVKYLMNPKVACTFSLWSFMVDERHSRFGLWCYEGLRDIYLRLQAIQRPELCVRGMAFSFNTEIGRRFGFRTDIIRGEDGSLALAMKPYGKIVFITSRKARVLTSNGTLNSEGSLIDNIWIRVIKALKEITGLFIKKTAYKDKDSNLIK” as the sequence, how does the “soluble on expression in E. coli” value read?
**A.** not soluble

**Q.** Which “soluble on expression in E. coli” value does the source give for “MKRVDSVISLIYSLSKSEKKHFSLQVIKDKEEKDYLVIYDIIIKSKQPNGNTVKEEFYRRKPNGSFEVSIQYLYEKLTDTLLTLRKKKDIYYDLLNNLCKARMLYERSLFEECFEILSNTIEQAQFYENNEILTIALKLELEYLLRLNFPNMTEQELFHKHFIQNEALKKIRKITEQSSLHNLLKYRLSHIGSIRTVKQKQDMNDLMVNELYIAASSDSEGNFELTRNHKLFQANYLMGAGDYRAALNSYKELDSLFEQNQQFWSNPPIYYLSVLEGVLGSLRSVSNYDEIPYFLDKLRKLISDSTSLEFKVNATCLLFQYELFPYLDKGDFSKCTQLMADYQEILYDKEAWLGPIRKSELLLYTTLVHIGNQEYKTAKKYISNAIIDHNIKYLPLMRTIRLVRLIVFYEVQEHELIQYESRSITRSLSSPKEQTFKTERIILWFLNKRNIPILKKDREAFWEKLSPEIHELYNNKYESQLLRLFDFTAWMESKIRKEKLSEVLRARASAKEC” here?
**A.** not soluble

**Q.** For “MGAGREVSVSLDGVRDKNLMQLKILNTVLFPVRYNDKYYADAIAAGEFTKLAYYNDICVGAIACRLEKKESGAMRVYIMTLGVLAPYRGIGIGSNLLNHVLDMCSKQNMCEIYLHVQTNNEDAIKFYKKFGFEITDTIQNYYINIEPRDCYVVSKSFAQSEANK”, which “soluble on expression in E. coli” value is on record?
**A.** soluble

**Q.** For “GSNRAIRTEKIICRDVARGYENVPIPCVNGVDGEPCPEDYKYISENCETSTMNIDRNITHLQHCTCVDDCSSSNCLCGQLSIRCWYDKDGRLLQEFNKIEPPLIFECNQACSCWRNCKNRVVQSGIKVRLQLYRTAKMGWGVRALQTIPQGTFICEYVGELISDAEADVREDDSYLFDLDNKDGEVYCIDARYYGNISRFINHLCDPNIIPVRVFMLHQDLRFPRIAFFSSRDIRTGEELGFDYGDRFWDIKSKYFTCQCGSEKCKHSAEAIALEQSRLARLD”, which “soluble on expression in E. coli” value is on record?
**A.** soluble

**Q.** With “MDATMVFKRLLGSLGVGAPTVDTVLDPAPVLPGGTLTGQVHLEGGQTDFDIEHITLELVARVEAEHEDGEDEGVVVFDRFTVGGGFRLGAEEPRSVPFRVTLPWETPITELYGQPLGIVLGVRTELAVADAKDKGDLDQLTVTALPVQEAVLEAFGQLGFGFGSADLEYGHIGGTGQQLPFYQEIELVPAPQYADRLNEIELTFLAGPGGLEVVLEADKRGGLLSSGHDAVTRFSVGHHDARDWAAEVEGWVRQLVEHHTTYGAPGTHGHSTPYAGHGHHDPHGNGGRHHDDHRSGPGVGTAVAAGAAGLAVGVVGGMVAAEVVDEVGDFFEGDDEEEDEG” as the sequence, how does the “soluble on expression in E. coli” value read?
**A.** not soluble

**Q.** For “MAHHHHHHMRGQRSGKFAEYTATYAILKRIGLHQTVLIEKRDASVGYGVYVRDACDSGTPLLVVPSRHAFSLSTVQKLGARVRQEDLMQSPQLEILNRGVLSRLLGCTAGEWISLAWRLAIEHQRSLSPWWGWLNVLPRMQDFRTMEDESGRQCRLHRVQLLPYFIEVQGSMQEEICSAYEVLSEKNLMPSPNHFRWAVDVILTRSHRLPACWTNGEGSSVELGIIPFVDLVNGDDGGERRRNARVEVAFEVEELPRWYRDEFLQESERRHVNGEEALRRLLEEHFFALVALERDLTASEEVIMEYELVPWVTGALSHEDDLLLGRLLRYRF”, which “soluble on expression in E. coli” value is on record?
**A.** not soluble

**Q.** Which “soluble on expression in E. coli” value does the source give for “MSLSRPRSVADHPMINPRLIALPDYPFQRLATLLAGVAPGADPLALSVGEPQHPTPALAGLELARHGDQWRRYPPAAGNERWKAAVTAWLTRRYGLPAAMIDPHAVIPASGTREALYMLGQVLTDGRGEAGERPLVVMPDPLYLPYLGAARMNGATILAVPGSEEGDFLPDIAGLPAATLERAAAVFVCSPANPQGSIVSLESWKTLVGLARRHGFVLVADECYSEIYDDQPPPGVLEACRDLGGSLKNVLVLNSLSKRSNGAGLRSGLIAGDRALIDAFLRLRAYASAGMPLPIMEASAALWDDETHVEANRALYREKIDLAAARLKGMLGFRRPPGGFFLWLDTTPWGETGEQATLRLWRDHGLKVLPGAYMTANPDAGDNPARNRLRLALVHDGPVVARALDRLVAASPHEGHHHHHH” here?
**A.** soluble

**Q.** With “MSLSFFAHFSPLSGHQKQAAHQILPHLFLGSAAAARSATWLQQNRITHIVCVHNAEVSPHELKRQLTISHPAGDTRATSHHHRQQTVAGQLVVHPDRCVYCCCYVQDTPQQVFLPVLFPVMDFIDNAIRDQSFRGGSPSGAPHGNVLVHCAKGISRSASLVICYLMFRRCWSYADSFTYIRRKRPIYPNVGFQASILTQLLETQELVENMFSQSEGHHHHHH” as the sequence, how does the “soluble on expression in E. coli” value read?
**A.** not soluble

**Q.** With “MGSDKIHHHHHHMEIKQLRYFIEVAKREHISETALELNIAQSAISRQITLLEQELNVSLFKKQGRNITLTSEGKLLFNEALRIIEHLDSTIEQFQSHGLTKNKSIYIGYDESDVSHMLLPLIQTFHLQNDTHVIPSLLDHDTIINSVLNGNIDIGFTELTPEIRKHKQLHMLPLFEEHYHLYAPSDDPITMATHPPLIQFEHSHIYCLAPFAETVKKQLRKITKSDVYTISSQPLAQYLLRQKEGYIISSQNIHLPESKSWIDIKLDHTELKRTICAITKEPYTKSDIGILLTLIQQLMTKTSTFH” as the sequence, how does the “soluble on expression in E. coli” value read?
**A.** not soluble

**Q.** Which “soluble on expression in E. coli” value does the source give for “MYTAENAPGVAVLLSGDADVPGPLTGLPTHQDNLDTVIGRYSRLIVVGADADLGAVLTRLLRTDRLDVEVGYVPRRRSPATRAYRLPAGRRAARRARCGVARRVPLIRDETGSVIVGRAQWLPAEEQALIHGEAVVDDTVLFDGDVAGVCIEPTLTLPGLRAAVDGAGKWRRWIGGRAAQLGTTGAAVLRDGVAAPRPVRRSTFYRNVEGWLLVR” here?
**A.** soluble

**Q.** For “MKNYIAIHPGEILREEYLKEYALSAYALAKALNVPRTRIERIVAENSRITPDTALRLASFFDTTAEFWLNMQAAYDVSVLQAEKADEFSKISKFECRV”, which “soluble on expression in E. coli” value is on record?
**A.** not soluble

**Q.** Which “soluble on expression in E. coli” value does the source give for “MGSDKIHHHHHHMNTDLTLVIMAAGLGSRFGGDKQLASLGPSGEPMLVLSILSAIRSGFQRAVLVIRPELEAELTGILTQFLPANFEYHFCYQSLSDLPQDAKLADLSHRLKPWGTAHALWCARDWVKGPMAVINADDFYGDSAFASLAKGLTARPNDWMMVAYPIELTLSEHGGVNRGLCQVAQGQLRSVAEWLNIQAQDDGFVGEGPNGLAKLPLQSLVSMTCWGFSPSIFNVIKQQLTAFIEQQGQLPKSECYLPAVVQAAIEQGVPVYVDVASEPWLGVTYPQDTVWVKQKLMELLGDKTH” here?
**A.** not soluble

**Q.** Which “soluble on expression in E. coli” value does the source give for “MGSDKIHHHHHHMLKLLKPKHRSILGIDISSSAVKILEISGSGEDICVEGYGREEIPASALEGNIIKDVDVVANCIKKLVERLKFTSKNVALAVPDSAVISKVVQINEGLTDLEMEELVVIEADKYIPYPIDEINLDFEVLGHSAKSSSLLDVLIVASRAENVNTRVEAAHRAGLEPKVVDVESYAVERSVQQIAQELPASGQDKIVAIVDIGANYTHLFVLHGMRLIFSREEKFGGMQLVEAIAEHYHMNLEQAIALKNQGKLPEDYESAVLEPFKDMILLQIKRTLQFFYSTSQHGFVDHILLAGGMARQSGLAALIQEQLGVTTTVANPLSHMSFGKKVNLDVINSDAPTLMVACGLALRHVE” here?
**A.** not soluble
